The nature of series [1]: Solubility and stability of expressed domain by SDS-PAGE of supernatant and precipitate. It is filed as physicochemical. The settings on record: expressed in E. coli, SDS-PAGE (FIG. 9). On the procedure:
After cloning the PTP active domain determined in Example <1-2>, it was expressed in E. coli and purified therefrom. After storing for a while, a proper amount of protein solution was ultra-centrifuged to separate supernatant and precipitate. SDS-PAGE was performed with the precipitate by the same manner as described in Example 3 to investigate whether the precipitate contained the target protein, leading to the examination of solubility.
The protein band cut by protease obtained in Example <1-3-2> was transferred to PVDF membrane. The band was cut and treated with a reagent recognizing and digesting N-terminal, followed by HPLC stepwise to arrange amino acids. Mass spectrometry was performed with the band to calculate the mass exactly and select stable domains. The re-designed domains were tested for activity and stability by the same manner as described in Example 4.

The nature of series [2]: Protease (trypsin or chymotrypsin) digestion of PTP active domain, SDS-PAGE. It is filed as physicochemical. The settings on record: 37° C., 30 minutes, SDS-PAGE (FIG. 8). The protocol: Based on the result of Example <1-3-1>, 20 μg of PTP active domain having low solubility and stability was serially diluted from 1:1 to 1:1,000, followed by reaction with trypsin (Sigma, USA) or chymotrypsin (Sigma, USA) at 37° C. for 30 minutes. SDS-PAGE was performed by the same manner as described in Example 3 to confirm digestion.

B1: re-designed pk7: re-designed stable PTP active domain of pk7 (MKP2), amino acids 174-338, SEQ. ID. NO: 136 (protein)
chain: SATEPLDLGCSSCGTPLHDQGGPVEILPFLYLGSAYHAARRDMLDALGITALLNVSSDCPNHFEGHYQYKCIPVEDNHKADISSWFMEAIEYIDAVKDCRGRVLVHCQAGISRSATICLAYLMMKKRVRLEEAFEFVKQRRSIISPNFSFMGQLLQFESQVLATS
modifications: Amino acid sequence of PTP active domain pk7
With B1, in series [1], the solubility entry is “high” and the stability entry is listed as “high”.

B2: full length pk7: full length pk7 (MKP2), unstable domain amino acids 1-394 (protein, UniProt Q13115 1-394, looked up)
chain: MVTMEELREMDCSVLKRLMNRDENGGGAGGSGSHGTLGLPSGGKCLLLDCRPFLAHSAGYILGSVNVRCNTIVRRRAKGSVSLEQILPAEEEVRARLRSGLYSAVIVYDERSPRAESLREDSTVSLVVQALRRNAERTDICLLKGGYERFSSEYPEFCSKTKALAAIPPPVPPSATEPLDLGCSSCGTPLHDQGGPVEILPFLYLGSAYHAARRDMLDALGITALLNVSSDCPNHFEGHYQYKCIPVEDNHKADISSWFMEAIEYIDAVKDCRGRVLVHCQAGISRSATICLAYLMMKKRVRLEEAFEFVKQRRSIISPNFSFMGQLLQFESQVLATSCAAEAASPSGPLRERGKTPATPTSQFVFSFPVSVGVHSAPSSLPYLHSPITTSPSC
modifications: full-length
As to B2, in series [1], the solubility result is “low” and the stability result is “low”.

B3: T38: recombinant PTP active domain; unstable domain 636-979, stable domain 709-979, SEQ. ID. NO: 120 (protein)
chain: LAKEWQALCAYQAEPNTCATAQGEGNIKKNRHPDFLPYDHARIKLKVESSPSRSDYINASPIIEHDPRMPAYIATQGPLSHTIADFWQMVWESGCTVIVMLTPLVEDGVKQCDRYWPDEGASLYHVYEVNLVSEHIWCEDFLVRSFYLKNVQTQETRTLTQFHFLSWPAEGTPASTRPLLDFRRKVNKCYRGRSCPIIVHCSDGAGRTGTYILIDMVLNRMAKGVKEIDIAATLEHVRDQRPGLVRSKDQFEFALTAVAEEVNAILKALP
modifications: Amino acid sequence of PTP active domain T38
For the molecule B3, the “stability with increase of protease concentration” value in series [2] is “maintained”.

The values are drawn from patent publication US20130224779A1, “METHOD FOR LARGE SCALE PREPARATION OF THE ACTIVE DOMAIN OF HUMAN PROTEIN TYROSINE PHOSPHATASE WITHOUT FUSION PROTEIN” (Korea Research Institute of Bioscience and Biotechnology, priority 2007, published 2013).
